According to US20240342322A1 (NETRIS PHARMA, published 2024):

Molecular target: T1, recombinant human netrin-1 (R&D) (human, UniProt O95631 25-604, limits assumed)
T1 construct: Bought recombinant protein; also called h-netrin-1; human recombinant netrin-1
Assay: bio-layer interferometry

binding result: binds
B1: recombinant human Vitronectin (other, UniProt P04004 20-478, looked up)
chain: DQESCKGRCTEGFNVDKKCQCDELCSYYQSCCTDYTAECKPQVTRGDVFTMPEDEYTVYDDGEEKNNATVHEQVGGPSLTSDLQAQSKGNPEQTPVLKPEEEAPAPEVGASKPEGIDSRPETLHPGRPQPPAEEELCSGKPFDAFTDLKNGSLFAFRGQYCYELDEKAVRPGYPKLIRDVWGIEGPIDAAFTRINCQGKTYLFKGSQYWRFEDGVLDPDYPRNISDGFDGIPDNVDAALALPAHSYSGRERVYFFKGKQYWEYQFQHQPSQEECEGSSLSAVFEHFAMMQRDSWEDIFELLFWGRTSAGTRQPQFISRDWHGVPGQVDAAMAGRIYISGMAPRPSLAKKQRFRHRNRKGYRSQRGHSRGRNQNSRRPSRATWLSLFSSEESNLGANNYDDYRMDWLVPATCEPIQSVFFFSGDKYYRVNLRTRRVDTVDPPYPRSIAQYWLGCPAPGHL
notes: also called h-Vitronectin
